This is an account of results in paper PMC5605669, “Dimerization regulates both deaminase-dependent and deaminase-independent HIV-1 restriction by APOBEC3G” (Nature Communications, 2017).

Changes are numbered by the printed parent chain. Names and notes keep the numbering of the source.

Data set [1] deals with the molecule itself. Briefly: cell-based or functional assay.
Data set [2] concerns the molecule itself. Briefly: optical tweezers (single-molecule ssDNA extension); fraction of bound A3G that stays stably bound after washing with buffer, against incubation time (200 to 1000 s) at 50 nM; single exponential fit gives the oligomerization rate on ssDNA at 80 pN.
Data set [3] deals with the molecule itself. Briefly: AFM imaging; 70 nM A3G incubated 10 min with linearized m13 ssDNA in 10 mM Tris, 2.5 mM NaCl; deposited on APTES coated mica, imaged in liquid; monomers per cluster on ssDNA from cluster volume.

B1: APOBEC3G, wild type (enzyme, human, UniProt Q9HC16 1-384, looked up)
chain: MKPHFRNTVERMYRDTFSYNFYNRPILSRRNTVWLCYEVKTKGPSRPPLDAKIFRGQVYSELKYHPEMRFFHWFSKWRKLHRDQEYEVTWYISWSPCTKCTRDMATFLAEDPKVTLTIFVARLYYFWDPDYQEALRSLCQKRDGPRATMKIMNYDEFQHCWSKFVYSQRELFEPWNNLPKYYILLHIMLGEILRHSMDPPTFTFNFNNEPWVRGRHETYLCYEVERMHNDTWVLLNQRRGFLCNQAPHKHGFLEGRHAELCFLDVIPFWKLDLDQDYRVTCFTSWSPCFSCAQEMAKFISKNKHVSLCIFTARIYDDQGRCQEGLRTLAEAGAKISIMTYSEFKHCWDTFVDHQGCPFQPWDGLDEHSQDLSGRLRAILQNQEN
Turning to B1, in data set [1], the “deaminase activity on labeled 118-nt ssDNA after 3 min pre-incubation of 25 nM A3G with unlabeled 69-nt trap ssDNA (0.5 to 5 mM as printed), fold reduction (threefold to 13-fold)” value amounted to 13 fold.

B2: APOBEC3G F126A-W127A (NTD mutant) (enzyme, human, UniProt Q9HC16 1-384, looked up)
chain: B1 chain with F126A, W127A
notes: APOBEC3G (A3G), human, with F126A and W127A in the N-terminal domain; The methods describe the making of A3G in general; also called FW; FW A3G; source: Sf9 cells (recombinant baculovirus), purified in the presence of RNase A
In the case of B2, in data set [2], the “fold reduction of oligomerization rate against WT” value came out at 3 fold.

B3: APOBEC3G R313A-D316A-D317A-Q318A (CTD mutant) (enzyme, human, UniProt Q9HC16 1-384, looked up)
chain: B1 chain with R313A, D316A, D317A, Q318A
notes: APOBEC3G (A3G), human, with R313A, D316A, D317A and Q318A in the C-terminal domain; The methods describe the making of A3G in general; also called RDDQ; RDDQ A3G; source: Sf9 cells (recombinant baculovirus), purified in the presence of RNase A
Consider B3, for which the binding result in data set [3] was “binds”.

B4: APOBEC3G I314A-Y315A (CTD mutant) (enzyme, human, UniProt Q9HC16 1-384, looked up)
chain: B1 chain with I314A, Y315A
notes: APOBEC3G (A3G), human, with I314A and Y315A in the C-terminal domain; The methods describe the making of A3G in general; also called IY; IY A3G; source: Sf9 cells (recombinant baculovirus), purified in the presence of RNase A
B4: in data set [3], the binding result is given as “binds”.
